The text below walks through data of publication PMC9418327.

The series has as its target Dfd (Deformed);Exd (Extradenticle) (Drosophila melanogaster?;Drosophila melanogaster?) (UniProt P07548+P40427). In words: EMSA. Particulars: class 2 site printed as 9.1 mM in same passage; assay source not fully shown; 20 mM HEPES pH 7.9, 1.4 mM MgCl2, 1 mM ZnSO4, 40 mM KCl, 0.1 mM EGTA, 5% glycerol, 10 mM DTT, 0.1% NP40, 200 ng poly(dI-dC), 3 ug BSA, 2 pmol Cy5 dsDNA in …. In general terms: In EMSA bound probe runs differently from free probe, usually more slowly.

Dfd (Deformed);Exd (Extradenticle) (Drosophila melanogaster?;Drosophila melanogaster?), sequence (P07548 whole entry, chain 1 of 2): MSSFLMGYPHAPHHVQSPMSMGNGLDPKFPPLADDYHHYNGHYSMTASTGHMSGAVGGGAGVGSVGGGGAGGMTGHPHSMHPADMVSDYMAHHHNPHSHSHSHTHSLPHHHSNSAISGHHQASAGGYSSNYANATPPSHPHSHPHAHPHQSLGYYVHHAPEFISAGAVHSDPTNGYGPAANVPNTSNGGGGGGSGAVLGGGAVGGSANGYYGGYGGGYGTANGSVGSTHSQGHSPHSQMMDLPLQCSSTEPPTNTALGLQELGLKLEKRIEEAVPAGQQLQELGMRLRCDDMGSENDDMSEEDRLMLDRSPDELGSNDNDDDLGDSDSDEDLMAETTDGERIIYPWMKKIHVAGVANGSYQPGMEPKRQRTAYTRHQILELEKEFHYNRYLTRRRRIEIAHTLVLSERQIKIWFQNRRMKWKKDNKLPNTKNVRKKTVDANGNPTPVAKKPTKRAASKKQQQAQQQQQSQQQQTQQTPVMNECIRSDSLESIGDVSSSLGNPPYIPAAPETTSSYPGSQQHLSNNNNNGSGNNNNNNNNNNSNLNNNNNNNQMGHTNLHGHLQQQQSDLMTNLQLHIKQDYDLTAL
Dfd (Deformed);Exd (Extradenticle) (Drosophila melanogaster?;Drosophila melanogaster?), sequence (P40427 whole entry, chain 2 of 2): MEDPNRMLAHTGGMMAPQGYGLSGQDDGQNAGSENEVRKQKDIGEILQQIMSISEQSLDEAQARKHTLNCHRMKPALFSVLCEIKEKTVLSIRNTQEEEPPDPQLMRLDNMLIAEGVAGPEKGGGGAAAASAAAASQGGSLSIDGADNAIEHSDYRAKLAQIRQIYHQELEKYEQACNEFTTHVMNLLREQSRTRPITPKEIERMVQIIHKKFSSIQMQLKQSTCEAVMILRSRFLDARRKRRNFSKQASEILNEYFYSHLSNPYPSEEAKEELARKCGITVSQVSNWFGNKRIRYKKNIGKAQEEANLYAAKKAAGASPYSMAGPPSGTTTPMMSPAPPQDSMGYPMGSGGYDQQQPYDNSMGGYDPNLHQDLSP

With modC enhancer site I, the Kd (mM (so in the source); probably nM)) came out at 5.5.
